In data set [1] the test system is V5-tagged wild-type mouse glutaminase C (GAC).
Data set [2] relates to GACΔC, C-terminal truncation mutant of mouse glutaminase C.
In data set [3] the test system is GAC (S103A), phospho-defective mutant of mouse glutaminase C.
Sequence of GAC (S103A), phospho-defective mutant of mouse glutaminase C (chain, as listed by the source S103A): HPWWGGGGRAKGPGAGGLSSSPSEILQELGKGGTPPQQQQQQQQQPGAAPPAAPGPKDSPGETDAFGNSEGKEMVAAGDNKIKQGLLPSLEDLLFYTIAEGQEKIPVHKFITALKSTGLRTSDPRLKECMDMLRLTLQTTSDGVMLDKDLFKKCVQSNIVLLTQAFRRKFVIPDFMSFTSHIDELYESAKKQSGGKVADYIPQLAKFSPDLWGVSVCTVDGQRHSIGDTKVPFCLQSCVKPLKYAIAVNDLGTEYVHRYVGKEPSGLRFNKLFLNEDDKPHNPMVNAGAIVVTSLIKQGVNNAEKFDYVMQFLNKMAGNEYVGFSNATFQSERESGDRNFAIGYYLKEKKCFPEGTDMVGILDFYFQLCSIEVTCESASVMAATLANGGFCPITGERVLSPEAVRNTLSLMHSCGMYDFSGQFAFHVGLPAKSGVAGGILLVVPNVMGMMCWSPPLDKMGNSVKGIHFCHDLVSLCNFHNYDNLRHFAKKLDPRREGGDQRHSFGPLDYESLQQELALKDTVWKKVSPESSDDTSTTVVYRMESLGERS

Sequence of GACΔC, C-terminal truncation mutant of mouse glutaminase C (chain, as listed by the source mutant): as the sequence (chain, as listed by the source S103A) above, with A49S counted along it
Sequence of V5-tagged wild-type mouse glutaminase C (GAC) (chain, as listed by the source): as the sequence (chain, as listed by the source S103A) above, with A49S counted along it

Take mTOR (mammalian target of rapamycin): the “phosphorylation of proteins immunoprecipitated with GAC after addition of radio-labeled ATP under conditions favorable for the activation of the mTOR kinase” value is “the phosphorylation of proteins immunoprecipitated with wild-type GAC and GACΔC is observed” in data set [1]; “the phosphorylation of proteins immunoprecipitated with wild-type GAC and GACΔC is observed” in data set [2]; “but not for proteins immunoprecipitated with GAC (S103A)” in data set [3].
